Non-standard residues stand in square brackets, D forms with d. sY = N[C@@H](Cc1ccc(OS(=O)(=O)O)cc1)C(=O)O
B1: wildtype madanin-1 (peptide)
chain: MYPERDSAKEGNQEQERALHVKVQKRTDGDADYDEYEEDGTTPTPDPTAPTAKPRLRGNKPHHHHHH
B2: madanin-1 with a single sulfotyrosine at Tyr32 (peptide)
chain: MYPERDSAKEGNQEQERALHVKVQKRTDGDAD[sY]DEYEEDGTTPTPDPTAPTAKPRLRGNKPHHHHHH
B3: madanin-1 with a single sulfotyrosine at Tyr35 (peptide)
chain: MYPERDSAKEGNQEQERALHVKVQKRTDGDADYDE[sY]EEDGTTPTPDPTAPTAKPRLRGNKPHHHHHH
B4: madanin-1 sulfated at both Tyr32 and Tyr35 (peptide)
chain: MYPERDSAKEGNQEQERALHVKVQKRTDGDAD[sY]DE[sY]EEDGTTPTPDPTAPTAKPRLRGNKPHHHHHH
B5: chimadanin with a single biosynthesized sulfotyrosine at Tyr28 (peptide)
chain: MQPKEKTKGVEVEGNPATLISARQMDVSYDEYEDNGPDVIPGEPAKPRGGPKNGAASGKFDQIPDFSSESHHHHHHH
modifications: sulfotyrosine at Tyr28 (counted without the initiator Met; residue 29 of SEQ ID NO: 107 as printed)
B6: chimadanin with a single biosynthesized sulfotyrosine at Tyr31 (peptide)
chain: B5 chain
modifications: sulfotyrosine at Tyr31 (counted without the initiator Met; residue 32 of SEQ ID NO: 107 as printed)
B7: wildtype chimadanin (peptide)
chain: B5 chain
B8: chimadanin doubly sulfated at both Tyr28 and Tyr31 (peptide)
chain: B5 chain
modifications: sulfotyrosine at Tyr28 and Tyr31 (counted without the initiator Met; residues 29 and 32 of SEQ ID NO: 107 as printed)

These binders were tested against thrombin (assay: chromogenic thrombin amidolytic activity assay; tight-binding model (Morrison equation)).

Question: Which Ki does the source give for B1 here?
Answer: Its Ki is 16 nM.

Question: Which Ki does the source give for B2 here?
Answer: Its Ki is 1.3 nM.

Question: Which Ki does the source give for B3 here?
Answer: Its Ki is 6.1 nM.

Question: B4 was tested. Which Ki did it give?
Answer: The Ki was 0.5 nM.

Question: For B5, which Ki is on record?
Answer: Its Ki is 0.6 nM.

Question: With B6 as the binder, how does the Ki read?
Answer: Its Ki is 1.5 nM.

Question: For B7, which Ki is on record?
Answer: Its Ki is 12.9 nM.

Question: With B8 as the binder, how does the Ki read?
Answer: Its Ki is 0.1 nM.

— patent publication US20240344040A1, “PROKARYOTIC AND EUKARYOTIC CELLS WITH BIOSYNTHESIZED SULFOTYROSINE FOR GENETIC INCORPORATION” (William Marsh Rice University, priority 2023, published 2024)
